Reference: patent US12195506B2, “Immunotherapy with A*01 restricted peptides and combination of peptides against cancers and related methods” (Immatics Biotechnologies GmbH, priority 2018, dated 2025)

These substances were tested against HLA-A*01:01 (Homo sapiens, UniProt P04439, A114D/A174V/A182V/D101N/D185E/E176A/E190D/L180R/Q94H/R68K/S129P/T187R/V100A/V91M/W191G) (assay: MHC binding assay: UV-ligand exchange, ELISA of stabilized MHC complexes (peptide exchange yield)). Conditions: binding to HLA-A*01:01, UV-ligand exchange.
From the text: Candidate peptides for T cell based therapies according to the present invention were further tested for their MHC binding capacity (affinity). The individual peptide-MHC complexes were produced by UV-ligand exchange, where a UV-sensitive peptide is cleaved upon UV-irradiation and exchanged with the peptide of interest as analyzed. Only peptide candidates that can effectively bind and stabilize the peptide-receptive MHC molecules prevent dissociation of the MHC complexes. To determine the yield of the exchange reaction, an ELISA was performed based on the detection of the light chain (β2m) of stabilized MHC complexes. The assay was performed as generally described in Rodenko et al. (Rodenko et al., 2006)
96 well MAXISorp plates (NUNC) were coated over night with 2 ug/ml streptavidin in PBS at room temperature, washed 4× and blocked for 1 h at 37° C. in 2% BSA containing blocking buffer. Refolded HLA-A*02:01/MLA-001 monomers served as standards, covering the range of 15-500 ng/ml. Peptide-MHC monomers of the UV-exchange reaction were diluted 100-fold in blocking buffer. Samples were incubated for 1 h at 37° C., washed four times, incubated with 2 ug/ml HRP conjugated anti-β2m for 1 h at 37° C., washed again and detected with TMB solution that is stopped with […]. Absorption was measured at 450 nm.

Row | Substance | Peptide exchange
1 | 97 (FPAPPAHWFY; listed as Homo sapiens) [compound 97] | ++ (>20% = ++)
2 | 98 (NFSDLVFTY; listed as Homo sapiens) [compound 98] | ++ (>20% = ++)
3 | 99 (AADSNPSEL; listed as Homo sapiens) [compound 99] | ++ (>20% = ++)
4 | 100 (TTSSAISWILY; listed as Homo sapiens) [compound 100] | +++ (>50 = +++)
5 | 101 (SITDVDFIY; listed as Homo sapiens) [compound 101] | ++ (>20% = ++)
6 | 102 (STIRGELFF; listed as Homo sapiens) [compound 102] | ++ (>20% = ++)
7 | 103 (ITDTLIHLM; listed as Homo sapiens) [compound 103] | +++ (>50 = +++)
8 | 104 (ITDTLIHL; listed as Homo sapiens) [compound 104] | ++ (>20% = ++)
9 | 105 (VVFDKSDLAKY; listed as Homo sapiens) [compound 105] | ++ (>20% = ++)
10 | 106 (EVVEGKEWGSFY; listed as Homo sapiens) [compound 106] | +++ (>50 = +++)
11 | 107 (TTENSGNYY; listed as Homo sapiens) [compound 107] | ++++ (>75% = ++++)
12 | 108 (NSNLKFLEV; listed as Homo sapiens) [compound 108] | ++ (>20% = ++)
13 | 109 (ISEDKSISF; listed as Homo sapiens) [compound 109] | ++ (>20% = ++)
14 | 110 (IGDKVDAVY; listed as Homo sapiens) [compound 110] | ++ (>20% = ++)
15 | 111 (TPIPFDKILY; listed as Homo sapiens) [compound 111] | ++ (>20% = ++)
16 | 112 (KASSVSAEDGY; listed as Homo sapiens) [compound 112] | ++ (>20% = ++)
17 | 113 (ASCRSSAEY; listed as Homo sapiens) [compound 113] | ++++ (>75% = ++++)
18 | 114 (AVAAAAGASLY; listed as Homo sapiens) [compound 114] | ++ (>20% = ++)
19 | 115 (NEIDIHSIYFY; listed as Homo sapiens) [compound 115] | ++ (>20% = ++)
20 | 116 (RSDIGEFEW; listed as Homo sapiens) [compound 116] | ++ (>20% = ++)

Row | Substance | Peptide exchange
21 | 117 (SPAKQFNIY; listed as Homo sapiens) [compound 117] | +++ (>50 = +++)
22 | 118 (LTWAHSAKY; listed as Homo sapiens) [compound 118] | +++ (>50 = +++)
23 | 119 (TVFDENLSRY; listed as Homo sapiens) [compound 119] | ++ (>20% = ++)
24 | 121 (SADEAHGLL; listed as Homo sapiens) [compound 121] | ++ (>20% = ++)
25 | 122 (ISEAPLTEV; listed as Homo sapiens) [compound 122] | ++ (>20% = ++)
26 | 123 (LLKAKDILY; listed as Homo sapiens) [compound 123] | ++ (>20% = ++)
27 | 124 (FLKVTGYDKDDY; listed as Homo sapiens) [compound 124] | ++ (>20% = ++)
28 | 125 (FQYELRELY; listed as Homo sapiens) [compound 125] | ++++ (>75% = ++++)
29 | 126 (TTDPKKFQY; listed as Homo sapiens) [compound 126] | ++++ (>75% = ++++)
30 | 127 (VPFNLITEY; listed as Homo sapiens) [compound 127] | + (>10% =+)
31 | 128 (YTEFVDATFTK; listed as Homo sapiens) [compound 128] | ++++ (>75% = ++++)
32 | 129 (STIDFRAGF; listed as Homo sapiens) [compound 129] | ++ (>20% = ++)
33 | 130 (YIGLKGLYF; listed as Homo sapiens) [compound 130] | ++ (>20% = ++)
34 | 131 (LEDGIEQSAY; listed as Homo sapiens) [compound 131] | ++ (>20% = ++)
35 | 132 (RTHIGYKVY; listed as Homo sapiens) [compound 132] | +++ (>50 = +++)
36 | 133 (ITDVGPGNY; listed as Homo sapiens) [compound 133] | +++ (>50 = +++)
37 | 134 (SAPSSSGSPLY; listed as Homo sapiens) [compound 134] | ++ (>20% = ++)
38 | 135 (TFDKQIVLL; listed as Homo sapiens) [compound 135] | ++ (>20% = ++)
39 | 136 (RRLNFSGFGY; listed as Homo sapiens) [compound 136] | +++ (>50 = +++)
40 | 137 (EAYLERIGY; listed as Homo sapiens) [compound 137] | +++ (>50 = +++)

Row | Substance | Peptide exchange
41 | 138 (IPVHDSVGVTY; listed as Homo sapiens) [compound 138] | +++ (>50 = +++)
42 | 139 (PVHDSVGVTY; listed as Homo sapiens) [compound 139] | ++ (>20% = ++)
43 | 140 (SQHIFTVSY; listed as Homo sapiens) [compound 140] | ++ (>20% = ++)
44 | 141 (DAVAPGREY; listed as Homo sapiens) [compound 141] | ++ (>20% = ++)
45 | 142 (IEKFAVLY; listed as Homo sapiens) [compound 142] | +++ (>50 = +++)
46 | 143 (HVSGQMLYF; listed as Homo sapiens) [compound 143] | ++ (>20% = ++)
47 | 144 (RTIEGDFLW; listed as Homo sapiens) [compound 144] | ++ (>20% = ++)
48 | 145 (LSDAVHVEF; listed as Homo sapiens) [compound 145] | +++ (>50 = +++)
49 | 146 (LCATVCGTEQY; listed as Homo sapiens) [compound 146] | ++ (>20% = ++)
50 | 147 (AQVQDTGRY; listed as Homo sapiens) [compound 147] | +++ (>50 = +++)
51 | 148 (GTKQWVHARY; listed as Homo sapiens) [compound 148] | + (>10% =+)
52 | 149 (PIMSSSQALY; listed as Homo sapiens) [compound 149] | ++ (>20% = ++)
53 | 150 (FTTLSDLQTNMA; listed as Homo sapiens) [compound 150] | ++ (>20% = ++)
54 | 151 (YEVDTKLLSL; listed as Homo sapiens) [compound 151] | ++ (>20% = ++)
55 | 152 (YLEDRPLSQ; listed as Homo sapiens) [compound 152] | ++ (>20% = ++)
56 | 153 (HSIEVFTHY; listed as Homo sapiens) [compound 153] | ++ (>20% = ++)
57 | 154 (SIEVFTHY; listed as Homo sapiens) [compound 154] | +++ (>50 = +++)
58 | 155 (HTMEVTVY; listed as Homo sapiens) [compound 155] | +++ (>50 = +++)
59 | 156 (STALSILLL; listed as Homo sapiens) [compound 156] | ++ (>20% = ++)
60 | 157 (GLIEVVTGY; listed as Homo sapiens) [compound 157] | ++++ (>75% = ++++)
